The target of this experiment is 47 aa syntaxin peptide corresponding to the SNARE interaction part of the syntaxin sequence (aa 201-248) (UniProt P32851). In words: SPR; Biacore 2000, syntaxin peptide covalently immobilised on a CM5 chip; 0.13 mg/ml S-B in buffer B for 5 min; then washing or denaturing reagents 1 min each; 25°C. (In general: In SPR one partner is held on a chip, and binding of the other changes the refractive index at the surface.)

Our source for the percent of originally bound S-B resistant to the harsh treatments values is PMC2885309.

Sequence of S-B, fusion of brevin to the C-terminus of SNAP25 (chain): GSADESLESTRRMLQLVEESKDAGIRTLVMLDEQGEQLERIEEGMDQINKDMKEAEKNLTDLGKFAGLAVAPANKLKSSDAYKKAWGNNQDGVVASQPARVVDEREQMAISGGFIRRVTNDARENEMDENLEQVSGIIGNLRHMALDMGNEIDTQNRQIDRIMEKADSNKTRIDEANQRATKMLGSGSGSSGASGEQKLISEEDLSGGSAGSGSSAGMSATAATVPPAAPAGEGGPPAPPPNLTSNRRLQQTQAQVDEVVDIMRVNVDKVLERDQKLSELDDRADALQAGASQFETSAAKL

“S-B, fusion of brevin to the C-terminus of SNAP25” registered a percent of originally bound S-B resistant to the harsh treatments of less than 50%.
